Tests used:
Assay in all cases: flow cytometry, biotinylated IL-17C (1 ug/ml) + streptavidin-PE on stably transfected BHK cells
murine ZcytoR21x6 = target: T1, murine ZcytoR21x6 (mouse, UniProt Q8BH06 24-637)
T1 construct: also called mouse ZcytoR21x6; mcytor21x6
T1 sequence: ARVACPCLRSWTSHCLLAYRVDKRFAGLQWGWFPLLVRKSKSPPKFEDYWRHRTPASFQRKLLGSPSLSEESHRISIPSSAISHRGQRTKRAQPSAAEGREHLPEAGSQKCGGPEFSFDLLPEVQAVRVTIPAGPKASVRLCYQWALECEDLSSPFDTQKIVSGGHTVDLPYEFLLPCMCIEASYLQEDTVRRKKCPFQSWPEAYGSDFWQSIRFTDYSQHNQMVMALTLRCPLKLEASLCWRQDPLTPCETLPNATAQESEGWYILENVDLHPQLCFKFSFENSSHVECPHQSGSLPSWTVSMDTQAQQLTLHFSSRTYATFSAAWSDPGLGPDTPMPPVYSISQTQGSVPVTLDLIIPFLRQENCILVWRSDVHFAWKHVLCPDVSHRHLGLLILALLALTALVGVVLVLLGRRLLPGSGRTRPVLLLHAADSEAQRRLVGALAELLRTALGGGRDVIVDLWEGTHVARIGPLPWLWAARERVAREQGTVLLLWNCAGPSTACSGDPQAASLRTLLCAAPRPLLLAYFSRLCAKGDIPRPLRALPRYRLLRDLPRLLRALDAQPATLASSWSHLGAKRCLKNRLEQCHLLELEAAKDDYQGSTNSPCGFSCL
Description: (§1) BHK cells stably transfected with human and mouse ZcytoR21 splice variants were plated and grown to confluency in T-75 flasks. Cells were lifted off using a non-protease reagent such as Versene (Invitrogen 15040-066), pelleted, and resuspended in a staining reagent (HBSS+1% BSA+0.1% NaAzide+10 mM HEPES) at 2×10e7 cells/ml and aliquoted to a 96-well Costar plate. IL-17C that has been labeled with biotin was independently added to cells at a concentration of 1 ug/ml. The cell/ligand mixture can be incubated for 1 hr at 4 degrees. The wells were washed 1× in staining reagent, and incubated in a secondary reagent containing staining reagent plus Streptavidin-PE (BD Pharmingen 554061) at a 1:100 ratio. The wells were incubated at 4° C. in the dark for 1 hr, followed by a 2× wash in staining media. The cells were then resuspended in a 1:1 mixture of staining media and Cytofix (BD Bioscience 554655) and incubated 10 minutes at RT. The cells were analysed by Flow Cytometry and by gating on the PE positive events for cells that bound IL-17C.

human ZcytoR21x6 = target: T2, human ZcytoR21x6 (human, UniProt Q8NFR9 24-667)
T2 construct: also called hcytor21x6
T2 sequence: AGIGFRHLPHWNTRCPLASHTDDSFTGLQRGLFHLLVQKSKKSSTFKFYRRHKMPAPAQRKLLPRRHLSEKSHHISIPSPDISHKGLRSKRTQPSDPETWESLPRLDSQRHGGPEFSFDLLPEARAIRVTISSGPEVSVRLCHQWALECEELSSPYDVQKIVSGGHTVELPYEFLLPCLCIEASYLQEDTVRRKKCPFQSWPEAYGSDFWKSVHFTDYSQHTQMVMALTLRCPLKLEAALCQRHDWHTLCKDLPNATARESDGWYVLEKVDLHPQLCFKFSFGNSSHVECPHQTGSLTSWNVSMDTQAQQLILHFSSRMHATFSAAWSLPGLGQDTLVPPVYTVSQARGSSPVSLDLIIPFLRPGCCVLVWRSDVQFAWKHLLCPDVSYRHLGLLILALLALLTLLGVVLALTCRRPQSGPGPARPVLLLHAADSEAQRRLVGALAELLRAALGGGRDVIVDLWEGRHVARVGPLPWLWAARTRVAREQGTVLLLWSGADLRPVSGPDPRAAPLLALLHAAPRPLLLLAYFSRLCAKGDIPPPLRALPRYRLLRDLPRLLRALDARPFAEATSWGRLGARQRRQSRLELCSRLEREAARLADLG
Description: as §1

human ZcytoR21x13 = target: T3, human ZcytoR21x13 (human, UniProt Q8NFR9 24-667)
T3 construct: also called hcytor21x13
T3 sequence: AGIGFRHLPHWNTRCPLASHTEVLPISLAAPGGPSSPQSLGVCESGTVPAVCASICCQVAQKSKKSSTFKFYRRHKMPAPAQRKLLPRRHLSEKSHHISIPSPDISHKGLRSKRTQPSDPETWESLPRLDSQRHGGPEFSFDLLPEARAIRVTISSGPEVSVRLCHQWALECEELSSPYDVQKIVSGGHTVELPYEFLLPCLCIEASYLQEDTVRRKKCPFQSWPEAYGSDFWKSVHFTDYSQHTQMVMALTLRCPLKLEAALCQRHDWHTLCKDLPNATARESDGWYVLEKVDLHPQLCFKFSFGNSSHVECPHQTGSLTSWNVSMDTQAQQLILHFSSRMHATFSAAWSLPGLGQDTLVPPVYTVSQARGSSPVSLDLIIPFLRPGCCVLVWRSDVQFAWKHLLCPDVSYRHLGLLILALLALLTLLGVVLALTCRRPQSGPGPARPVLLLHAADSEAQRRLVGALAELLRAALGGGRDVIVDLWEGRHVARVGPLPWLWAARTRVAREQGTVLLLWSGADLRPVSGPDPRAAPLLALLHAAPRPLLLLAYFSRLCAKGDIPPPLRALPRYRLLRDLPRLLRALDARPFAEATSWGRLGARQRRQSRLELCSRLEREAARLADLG
Description: as §1

Measured: binding result

B1: human IL-17C (ligand)
chain: HHDPSLRGHPHSHGTPHCYSAEELPLGQAPPHLLARGAKWGQALPVALVSSLEAASHRGRHERPSATTQCPVLRPEEVLEADTHQRSISPWRYRVDTDEDRYPQKLAFAECLCRGCIDARTGRETAALNSVRLLQSLLVLRRRPCSRDGSGLPTPGAFAFHTEFIHVPVGCTCVLPRSV
modifications: biotin label in the binding assays (sites not given); unlabelled in the signalling assays
notes: it is the last residue of the open reading frame as I know it; Recombinant forms made carried a C-terminal Glu-Glu tag (BHK) or His tag (293F); also called biotinylated human IL-17C; human IL-17C (A903G)
binds: all assays above
